Laboratory results published in patent US20180037641A1.

Target: P301S human tau, T34 isoform (1N4R), of P301S tg mice (line PS19) (human) (UniProt P10636)
Experiment: cell-based or functional assay

Chain of P301S human tau, T34 isoform (1N4R), of P301S tg mice (line PS19) (human) (P10636 other isoform, or with tags, fused parts or gaps P301S P301S P301S P301S): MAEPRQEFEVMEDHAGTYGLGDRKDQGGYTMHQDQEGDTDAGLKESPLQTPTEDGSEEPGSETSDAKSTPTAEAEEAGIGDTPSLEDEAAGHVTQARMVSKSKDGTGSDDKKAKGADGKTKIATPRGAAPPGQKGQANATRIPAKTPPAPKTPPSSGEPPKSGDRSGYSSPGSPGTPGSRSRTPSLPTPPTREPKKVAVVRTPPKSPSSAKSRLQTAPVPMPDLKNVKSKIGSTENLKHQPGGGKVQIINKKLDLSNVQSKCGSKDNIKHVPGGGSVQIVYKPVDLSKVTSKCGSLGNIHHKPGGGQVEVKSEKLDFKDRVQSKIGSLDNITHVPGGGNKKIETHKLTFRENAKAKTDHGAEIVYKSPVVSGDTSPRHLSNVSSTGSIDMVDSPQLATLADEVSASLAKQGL

antibody concentration that significantly blocked uptake and seeding activity: 0.5 µg/mL
lowest antibody concentration that blocked seeding activity (titration against a fixed amount of P301S brain lysate): 0.25 µg/mL
B1: HJ8.5 (antibody, V domains shown)
VH: EVKVEESGGGLVQPGGSMKLSCVVSGFTFSNYWVNWVRQSPEKGLEWVAQIRLKSDNYATHYEESVKGRFTISRDDSKSSVYLQMNNLRAEDSGIYYCTNWEDYWGQGTTLTVSS
VL: DIVLTQSPASLAVSLGQRATISCRASQSVSTSRYSYIHWYQQKPGQPPKLLIKYASNLESGVPARFSGSGSGTDFTLNIHPLEEEDAATYYCHHSWEIPLTFGAGTKLELK
